In article PMC10528418 (Molecular cell, 2023):

T1: TFIIIC subunit τ138 (S. cerevisiae, UniProt P34111 1-1160)
T1 sequence (looked up): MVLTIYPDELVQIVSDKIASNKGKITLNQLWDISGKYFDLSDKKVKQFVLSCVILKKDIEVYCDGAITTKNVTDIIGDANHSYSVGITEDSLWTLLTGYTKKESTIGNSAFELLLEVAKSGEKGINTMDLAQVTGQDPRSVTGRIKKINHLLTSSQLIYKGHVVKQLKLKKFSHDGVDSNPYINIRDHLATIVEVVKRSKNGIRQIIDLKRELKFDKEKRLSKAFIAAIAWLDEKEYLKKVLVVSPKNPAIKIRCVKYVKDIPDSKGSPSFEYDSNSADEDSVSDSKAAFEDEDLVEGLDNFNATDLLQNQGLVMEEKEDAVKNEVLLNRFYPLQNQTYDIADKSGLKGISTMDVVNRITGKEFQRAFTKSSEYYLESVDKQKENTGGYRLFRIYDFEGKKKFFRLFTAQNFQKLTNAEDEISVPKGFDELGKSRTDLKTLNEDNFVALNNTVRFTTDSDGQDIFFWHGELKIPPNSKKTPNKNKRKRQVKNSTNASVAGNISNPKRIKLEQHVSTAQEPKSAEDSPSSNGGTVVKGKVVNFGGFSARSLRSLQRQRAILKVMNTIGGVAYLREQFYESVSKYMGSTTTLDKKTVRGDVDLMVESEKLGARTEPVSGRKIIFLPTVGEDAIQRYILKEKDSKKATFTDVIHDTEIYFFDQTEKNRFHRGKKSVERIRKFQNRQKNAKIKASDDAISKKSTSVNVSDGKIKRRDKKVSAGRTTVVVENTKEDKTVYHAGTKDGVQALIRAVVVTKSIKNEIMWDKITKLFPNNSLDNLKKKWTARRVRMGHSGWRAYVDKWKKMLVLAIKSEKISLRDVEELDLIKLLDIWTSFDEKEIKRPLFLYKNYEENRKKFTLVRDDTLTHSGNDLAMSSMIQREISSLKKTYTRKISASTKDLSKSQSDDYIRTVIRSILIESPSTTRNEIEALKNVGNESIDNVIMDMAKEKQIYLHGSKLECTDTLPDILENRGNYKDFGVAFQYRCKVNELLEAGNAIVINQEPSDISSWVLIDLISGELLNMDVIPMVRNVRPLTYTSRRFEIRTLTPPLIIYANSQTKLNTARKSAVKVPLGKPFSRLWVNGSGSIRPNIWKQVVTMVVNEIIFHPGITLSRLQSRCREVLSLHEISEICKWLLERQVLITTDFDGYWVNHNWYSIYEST

B1: TFIIIC subunit τ91 (natural protein, S. cerevisiae, UniProt Q06339 1-672, looked up)
chain: MAVIPAKKRGRPRKSVVAEVPYDSLASPVSENSGSKRPRRNASKKAVANFAQLVHAGRDDVINTTQVNNVDDTDDDDFVLNDEGDGEESDNVEIEFENELESTKNEVADLNSSGSGASVRPSGRRNTVQKLRLKKNSTKNMKSSSPGSSLGQKGRPIRLLKDLSSARDKIERIYGLNKEKLLLLAKVKEGFETSVFDFPFKNIQPDSPYFVCLDPPCKKESAYNKVIGDKNRTVYHEINKTEFENMIKLRTKRLKLLIGEVDAEVSTGDKIEFPVLANGKRRGFIYNVGGLVTDIAWLNIEENTDIGKDIQYLAVAVSQYMDEPLNEHLEMFDKEKHSSCIQIFKMNTSTLHCVKVQTIVHSFGEVWDLKWHEGCHAPHLVGCLSFVSQEGTINFLEIIDNATDVHVFKMCEKPSLTLSLADSLITTFDFLSPTTVVCGFKNGFVAEFDLTDPEVPSFYDQVHDSYILSVSTAYSDFEDTVVSTVAVDGYFYIFNPKDIATTKTTVSRFRGSNLVPVVYCPQIYSYIYSDGASSLRAVPSRAAFAVHPLVSRETTITAIGVSRLHPMVLAGSADGSLIITNAARRLLHGIKNSSATQKSLRLWKWDYSIKDDKYRIDSSYEVYPLTVNDVSKAKIDAHGINITCTKWNETSAGGKCYAFSNSAGLLTLEYLS
B2: TFIIIC subunit τ131 (natural protein, S. cerevisiae, UniProt P33339 1-1025, looked up)
chain: MAAGKLKKEQQNQSAERESADTGKVNDEDEEHLYGNIDDYKHLIQDEEYDDEDVPHDLQLSEDEYNSERDSSLLAEFSDYGEISEDDEEDFMNAIREASNFKVKKKKKNDKGKSYGRQRKERVLDPEVAQLLSQANEAFVRNDLQVAERLFNEVIKKDARNFAAYETLGDIYQLQGRLNDCCNSWFLAAHLNASDWEFWKIVAILSADLDHVRQAIYCFSRVISLNPMEWESIYRRSMLYKKTGQLARALDGFQRLYMYNPYDANILRELAILYVDYDRIEDSIELYMKVFNANVERREAILAALENALDSSDEESAAEGEDADEKEPLEQDEDRQMFPDINWKKIDAKYKCIPFDWSSLNILAELFLKLAVSEVDGIKTIKKCARWIQRRESQTFWDHVPDDSEFDNRRFKNSTFDSLLAAEKEKSYNIPIDIRVRLGLLRLNTDNLVEALNHFQCLYDETFSDVADLYFEAATALTRAEKYKEAIDFFTPLLSLEEWRTTDVFKPLARCYKEIESYETAKEFYELAIKSEPDDLDIRVSLAEVYYRLNDPETFKHMLVDVVEMRKHQVDETLHRISNEKSSNDTSDISSKPLLEDSKFRTFRKKKRTPYDAERERIERERRITAKVVDKYEKMKKFELNSGLNEAKQASIWINTVSELVDIFSSVKNFFMKSRSRKFVGILRRTKKFNTELDFQIERLSKLAEGDSVFEGPLMEERVTLTSATELRGLSYEQWFELFMELSLVIAKYQSVEDGLSVVETAQEVNVFFQDPERVKMMKFVKLAIVLQMDDEEELAENLRGLLNQFQFNRKVLQVFMYSLCRGPSSLNILSSTIQQKFFLRQLKAFDSCRYNTEVNGQASITNKEVYNPNKKSSPYLYYIYAVLLYSSRGFLSALQYLTRLEEDIPDDPMVNLLMGLSHIHRAMQRLTAQRHFQIFHGLRYLYRYHKIRKSLYTDLEKQEADYNLGRAFHLIGLVSIAIEYYNRVLENYDDGKLKKHAAYNSIIIYQQSGNVELADHLMEKYLSI
B3: S. cerevisiae TFIIIA (natural protein)
chain: MGGEVLNNEGMPLAELKQETIPISRSESSESLNSLTSTRSSSSNRPKTYFCDYDGCDKAFTRPSILTEHQLSVHQGLRAFQCDKCAKSFVKKSHLERHLYTHSDTKPFQCSYCGKGVTTRQQLKRHEVTHTKSFICPEEGCNLRFYKHPQLRAHILSVHLHKLTCPHCNKSFQRPYRLRNHISKHHDPEVENPYQCTFAGCCKEFRIWSQLQSHIKNDHPKLKCPICSKPCVGENGLQMHMIIHDDSLVTKNWKCHICPDMSFSRKHDLLTHYGSIHTEEDIPLELKYKISDIQQLVQDHGVQLGNSKHSNEQDEEKISNRLRKRRKLTENNNVEFLQNEVDLEKRLESGENGLNLLLNTVGRKYRCFYNNCSRTFKTKEKYEKHIDKHKVHELKLKILQEKEENKTLVDQNHKEPFIIQKETQSAGDK
B4: TFIIIC subunit τ95 (natural protein, S. cerevisiae, UniProt P32367 1-649, looked up)
chain: MPVEEPLATLSSIPDSSADQAPPLIADEFTLDLPRIPSLELPLNVSTKHSSIQKAIKMCGGIEKVKEAFKEHGPIESQHGLQLYLNDDTDSDGSKSYFNEHPVIGKRVPFRDESVILKVTMPKGTLSKNNNSVKDSIKSLKDSNKLRVTPVSIVDNTIKFREMSDFQIKLDNVPSAREFKSSFGSLEWNNFKSFVNSVPDNDSQPQENIGNLILDRSVKIPSTDFQLPPPPKLSMVGFPLLYKYKANPFAKKKKNGVTEVKGTYIKNYQLFVHDLSDKTVIPSQAHEQVLYDFEVAKKTKVYPGTKSDSKFYESLEECLKILRELFARRPIWVKRHLDGIVPKKIHHTMKIALALISYRFTMGPWRNTYIKFGIDPRSSVEYAQYQTEYFKIERKLLSSPIVKKNVPKPPPLVFESDTPGGIDSRFKFDGKRIPWYLMLQIDLLIGEPNIAEVFHNVEYLDKANELTGWFKELDLVKIRRIVKYELGCMVQGNYEYNKYKLKYFKTMLFVKESMVPENKNSEEGMGVNTNKDADGDINMDAGSQMSSNAIEEDKGIAAGDDFDDNGAITEEPDDAALENEEMDTDQNLKVPASIDDDVDDVDADEEEQESFDVKTASFQDIINKIAKLDPKTAETMKSELKGFVDEVDL

Columns and labels:
[1] = biological target: B2; assay: cryo-EM structure
[2] = biological target: T1, TFIIIC subunit τ138; assay: cryo-EM structure

Row | Binder | binding result [1] | binding result [2]
1 | B1 | binds | –
2 | B2 | – | binds
3 | B3 | – | binds
4 | B4 | binds | binds
